# Target: VP16-PYLcs (VP16 transactivation domain fused to PYL1 aa 33-209) (herpes simplex virus; Arabidopsis thaliana) (UniProt Q8VZS8)
# Test: cell-based or functional assay
# VP16-PYLcs (VP16 transactivation domain fused to PYL1 aa 33-209) (herpes simplex virus; Arabidopsis thaliana), sequence (Q8VZS8 33-209 limits assumed): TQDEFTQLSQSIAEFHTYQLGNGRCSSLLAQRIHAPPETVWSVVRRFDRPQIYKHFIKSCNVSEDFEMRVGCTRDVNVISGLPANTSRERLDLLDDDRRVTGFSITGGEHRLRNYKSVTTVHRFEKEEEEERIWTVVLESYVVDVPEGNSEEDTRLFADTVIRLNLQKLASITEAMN
substance,measurement,value
"Gal4 DBD-ABIcs, wild type (Gal4 DNA binding domain fused to ABI1 aa 126-423) (from UniProt P04386 1-147)","luciferase production (UAS-luciferase reporter, murine ES, NIH 3T3 and HEK 293T cells)",1000 fold

# — patent US20130158098A1, “Alkenyl Substituted Cycloaliphatic Compounds as Chemical Inducers of Proximity” (priority 2010, published 2013)
